Experimental findings from patent publication US20190092862A1 (GENERON SHANGHAI, published 2019) are described below.

The Kd is the free concentration of one partner at which half of the binding sites on the other are occupied at equilibrium, for simple one-to-one binding. The term koff denotes the first-order rate constant of dissociation. The term kon denotes the rate constant with which the complex forms. As usually defined, the EC50 (read off the curve) is the concentration at which the effect is half-maximal. By EC50 is commonly meant the midpoint of the concentration-response curve.

For experiment [1], the target named is T1, huEpCAM.Fc (human EpCAM antigen construct) (human, UniProt P16422 24-265, limits assumed).
T1 construct: not shown: human IgG Fc
T1 sequence (looked up): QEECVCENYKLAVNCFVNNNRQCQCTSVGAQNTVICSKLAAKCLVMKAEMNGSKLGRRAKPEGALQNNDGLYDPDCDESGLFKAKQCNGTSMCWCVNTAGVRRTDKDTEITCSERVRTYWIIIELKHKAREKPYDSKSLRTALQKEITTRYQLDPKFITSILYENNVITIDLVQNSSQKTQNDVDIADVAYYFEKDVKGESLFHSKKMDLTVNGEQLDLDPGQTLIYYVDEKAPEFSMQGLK
The experiment in a line: BLI (Octet QKe), antigen-Fc captured on AHC biosensor. Here is the method: (§1) The expressions of the antigen constructs is described in U.S. Pat. No. 8,846,042. The antigen constructs were diluted to 0.02 mg/mL with dilution(PBS, 0.1% BSA, 0.02% Tween-20, 0.05% NaN3), and then immobilized on an anti-hIgG Fc capture (AHC) biosensor. […] The control wells containing only PBS were also set up. The detection results were analyzed using ForteBio Data Acquisition and ForteBio Data Analysis software.
(In general: BLI is a label-free optical method that tracks binding on a fibre tip over time.)

In experiment [2] the target is cynoEpCAM.Fc (cynomolgus EpCAM antigen construct) (cynomolgus monkey; human). The experiment in a line: BLI (Octet QKe), antigen-Fc captured on AHC biosensor, ITAB1002 in solution. Here is the method: as §1
Experiment [3] deals with T1, huEpCAM.Fc (human EpCAM antigen …). The description is as above. Here is the method: as §1
The target in experiment [4] is T2, cynoCD3ε AA 1-27.Fc (cynomolgus CD3 antigen construct) (cynomolgus monkey; human, UniProt Q95LI5 22-48).
T2 construct: range 1-27; not shown: human IgG Fc
T2 chain (looked up): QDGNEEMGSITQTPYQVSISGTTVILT
The description is as above. Here is the method:
as §1

Experiment [5] has as its target T3, human CD3 on human PBMC (human, UniProt P07766 23-207).
T3 construct: whole, on cells; also called hPBMC; huPBMC
The experiment in a line: flow cytometry (FACS) on human PBMC, detection with PE mouse anti-human lambda light chain, co-staining with CD4 antibody; y axis Binding rate (%). Here is the method: Cells were washed with the FACS buffer once, resuspended in 50 μL FACS buffer, supplemented with CD4 Antibody (RFT-4g) APC-Cy7® conjugate(Invitrogen) and PE Mouse Anti-Human Light Chain […], (BD Pharmingen™), and incubated at room temperature for 45 min. 150 μL FACS buffer was finally added, and the samples were analyzed using ACCURI® C6 Cytometer (BD Biosciences).
Background: In flow cytometry, cells or beads pass a laser one at a time.

Experiment [6] addresses T4, cynomolgus monkey EpCAM on transfected CHO cells (CyEpCAM-CHO) (cynomolgus monkey).
T4 construct: whole, on cells; also called CHO cells expressing cynomolgus monkey EpCAM on the cell surface
The experiment in a line: flow cytometry on CHO cells expressing cynomolgus monkey EpCAM (CyEpCAM-CHO). Here is the method: (§2) SW480 cells and CyEpCAM-CHO cells were trypsinized with 0.25% Trypsin-EDTA (Gibco), resuspended with a FACS buffer. […] Cells were then washed with the FACS buffer and resuspended in 50 μL FACS buffer. Mouse anti-Human IgG Fab Secondary Antibody PE conjugate(Invitrogen) were added, and allowed for incubation at 4° C. for 30 min. 150 μL FACS buffer was finally added, and the samples were analyzed using ACCURI® C6 Cytometer (BD Biosciences).

Experiment [7] addresses T5, human EpCAM on SW480 cells (human, UniProt P16422 24-314).
T5 construct: whole, on cells; also called SW480 cells expressing human EpCAM; human colon cancer cell line SW480
T5 sequence (looked up): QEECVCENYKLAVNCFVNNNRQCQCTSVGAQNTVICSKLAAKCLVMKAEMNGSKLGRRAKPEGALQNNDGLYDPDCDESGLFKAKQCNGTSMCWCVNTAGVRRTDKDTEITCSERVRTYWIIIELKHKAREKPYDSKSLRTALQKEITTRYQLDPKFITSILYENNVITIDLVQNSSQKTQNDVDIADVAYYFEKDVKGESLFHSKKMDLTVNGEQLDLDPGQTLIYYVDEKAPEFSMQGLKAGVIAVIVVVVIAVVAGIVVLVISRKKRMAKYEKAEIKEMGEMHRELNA
The experiment is described as follows: flow cytometry on SW480 cells expressing human EpCAM. Here is the method: as §2

T3 sequence (P07766 23-207): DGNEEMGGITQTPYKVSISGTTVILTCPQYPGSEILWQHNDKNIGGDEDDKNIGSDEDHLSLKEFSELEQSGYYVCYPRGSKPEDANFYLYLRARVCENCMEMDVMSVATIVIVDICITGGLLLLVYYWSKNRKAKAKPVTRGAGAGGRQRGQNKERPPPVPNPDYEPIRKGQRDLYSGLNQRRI
T4 sequence (Q1WER1 24-314): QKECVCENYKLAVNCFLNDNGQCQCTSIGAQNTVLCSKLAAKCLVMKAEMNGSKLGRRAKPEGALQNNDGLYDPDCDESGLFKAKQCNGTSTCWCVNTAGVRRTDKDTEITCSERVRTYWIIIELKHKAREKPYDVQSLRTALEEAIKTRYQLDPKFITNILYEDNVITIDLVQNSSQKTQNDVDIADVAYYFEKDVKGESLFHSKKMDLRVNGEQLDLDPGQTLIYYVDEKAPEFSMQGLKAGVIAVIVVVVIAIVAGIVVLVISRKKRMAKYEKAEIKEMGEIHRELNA

B1: ITAB1002 (exemplary EpCAM×CD3 Fab fusion protein) (bispecific antibody)
heavy: EVQLVESGGGLVQPGGSLRLSCAASGFTFSNYWMSWVRQAPGKGLEWVANIKQDGSEKFYADSVKGRFTISRDNAKNSLYLQMNSLRAEDTAVYYCARVGPSWEQDYWGQGTLVTVSAGGGGSGGGGSGGGGSGAQSVLTQPPSVSGAPGQRVTISCTGSSSNIGSYYGVHWYQQLPGTAPKLLIYSDTNRPSGVPDRFSGSKSGTSASLAITGLQAEDEADYYCQSYDKGFGHRVFGGGTKLTVLGGEVQLVESGGGLVQPGGSLRLSCAASGFTFNTYAMNWVRQAPGKGLEWVARIRSKYNNYATYYADSVKDRFTISRDDSKNTLYLQMNSLRAEDTAVYYCVRHGNFGNSYVSWFAYWGQGTMVTVSSASTKGPSVFPLAPSSKSTSGGTAALGCLVKDYFPEPVTVSWNSGALTSGVHTFPAVLQSSGLYSLSSVVTVPSSSLGTQTYICNVNHKPSNTKVDKKVEPKSCPPCS
light: EVQLVESGGGLVQPGGSLRLSCAASGFTFSNYWMSWVRQAPGKGLEWVANIKQDGSEKFYADSVKGRFTISRDNAKNSLYLQMNSLRAEDTAVYYCARVGPSWEQDYWGQGTLVTVSAGGGGSGGGGSGGGGSGAQSVLTQPPSVSGAPGQRVTISCTGSSSNIGSYYGVHWYQQLPGTAPKLLIYSDTNRPSGVPDRFSGSKSGTSASLAITGLQAEDEADYYCQSYDKGFGHRVFGGGTKLTVLGGQAVVTQEPSLTVSPGGTVTLTCRSSTGAVTTSNYANWVQQKPGQAPRGLIGGTNKRAPGTPARFSGSLLGGKAALTLSGVQPEDEAEYYCALWYSNLWVFGGGTKLTVLGQPKAAPSVTLFPPSSEELQANKATLVCLISDFYPGAVTVAWKADSSPVKAGVETTTPSKQSNNKYAASSYLSLTPEQWKSHRSYSCQVTHEGSTVEKTVAPTECPPCS
notes: An anti-EpCAM scFv is fused to the N-terminus of each chain of an anti-CD3 Fab; there is no Fc; also called EpCAM x CD3 Fab fusion protein; ITB1002
In the case of B1, the Kd in experiment [1] stood at 2.49 nM; in experiment [2], 4.71 nM; in experiment [3], 3.49 nM; in experiment [4], 15.6 nM. The koff in experiment [1] came to 4.98e-05 s⁻¹. In experiment [1], this molecule returned an on-rate (kon) of 20000 M⁻¹ s⁻¹. The “EC50 (read off the curve)” value in experiment [5] was approximately 100 ng/mL. In addition, the figures for the EC50 in experiment [6] and in experiment [7] were 0.108 µg/mL and 0.411 µg/mL, respectively.

B2: ITAB1012 (EpCAM×CD3 Fab fusion protein with a different EpCAM scFv) (bispecific antibody)
heavy: EVQLVESGGGLVQPGGSLRLSCAASGFTFSNYWMSWVRQAPGKGLEWVANIKQDGSEKFYVDSVKGRFTISRDNAKNSLYLQMNSLRAEDMAVYYCARVGGAWELGYWGQGTLVTVSAGGGGSGGGGSGGGGSGAQSVLTQPPSVSGAPGQRVTISCTGSSSNIGSYYGVHWYQQLPGTAPKLLIYSDTNRPSGVPDRFSGSKSGTSASLAITGLQAEDEADYYCQSYDSSLSGRVFGGGTKLTVLGGEVQLVESGGGLVQPGGSLRLSCAASGFTFNTYAMNWVRQAPGKGLEWVARIRSKYNNYATYYADSVKDRFTISRDDSKNTLYLQMNSLRAEDTAVYYCVRHGNFGNSYVSWFAYWGQGTMVTVSSASTKGPSVFPLAPSSKSTSGGTAALGCLVKDYFPEPVTVSWNSGALTSGVHTFPAVLQSSGLYSLSSVVTVPSSSLGTQTYICNVNHKPSNTKVDKKVEPKSCPPCS
light: EVQLVESGGGLVQPGGSLRLSCAASGFTFSNYWMSWVRQAPGKGLEWVANIKQDGSEKFYVDSVKGRFTISRDNAKNSLYLQMNSLRAEDMAVYYCARVGGAWELGYWGQGTLVTVSAGGGGSGGGGSGGGGSGAQSVLTQPPSVSGAPGQRVTISCTGSSSNIGSYYGVHWYQQLPGTAPKLLIYSDTNRPSGVPDRFSGSKSGTSASLAITGLQAEDEADYYCQSYDSSLSGRVFGGGTKLTVLGGQAVVTQEPSLTVSPGGTVTLTCRSSTGAVTTSNYANWVQQKPGQAPRGLIGGTNKRAPGTPARFSGSLLGGKAALTLSGVQPEDEAEYYCALWYSNLWVFGGGTKLTVLGQPKAAPSVTLFPPSSEELQANKATLVCLISDFYPGAVTVAWKADSSPVKAGVETTTPSKQSNNKYAASSYLSLTPEQWKSHRSYSCQVTHEGSTVEKTVAPTECPPCS
notes: Its EpCAM scFv has different HVRs from that of ITAB1002; It has the same anti-CD3 Fab and was transiently expressed; also called EpCAMA×CD3 Fab fusion protein
In experiment [1], B2 came in with a Kd of 47.8 nM, a koff of 0.00647 s⁻¹ and an on-rate constant (kon) of 135000 M⁻¹ s⁻¹.
